Experimental findings from paper PMC4888458 are described below.

A short description of data set [1]: confocal microscopy of GFP–ALA2 in tobacco epidermal cells. The note with it: glycan lost; control: untagged wild-type ALIS5 with GFP–ALA2.
Data set [2] is described as follows: NBD-PS uptake in yeast, flow cytometry. The note with it: glycan lost; control: wild-type ALIS5 with ALA2. A general note: Flow cytometry measures light scatter and fluorescence of single cells or particles in a stream.

B1: ALIS5: N181Q (protein)
parent chain: MSSTAASSTVGGGGSSEISGVKKTSKRPKYSRFTQQELPACKPILTPRWVILTFLVAGVVFIPLGVICLFASQGVVEIVDRYDTDCIPTSSRNNMVAYIQGEGDKICKRTITVTKAMKHPVYVYYQLENFYQNHRRYVKSRNDAQLRSPKEEHDVKTCAPEDNVGGEPIVPCGLVAWSLFNDTYSFSRNSQQLLVNKKGISWKSDRENKFGKNVFPKNFQKGAPIGGGTLNISKPLSEQEDLIVWMRTAALPTFRKLYGKIETDLHAGDTITVLLQNNYNTYSFNGQKKLVLSTTSWLGGRNDFLGIAYLTVGSICLFLAVTFAVLYLVKPRQLGDPSYLSWNRSAGGLQ
With B1, the localisation_or_trafficking result in data set [1] is given as “abolishes”. For the same protein, the “other: transport activity” value in data set [2] is “abolishes”.

B2: ALIS5: N231Q/N181Q (protein)
parent chain: B1 parent chain
Turning to B2, the localisation_or_trafficking entry in data set [1] is “abolishes”. Besides, the “other: transport activity” value in data set [2] was “abolishes”.
